Experiments:
[1] = target: human CAPRIN-1 expressed on the surface of human cancer cells and in human cancer tissues (human) (UniProt Q14444); test: flow cytometry, 2 µg antibody on 8 human breast cancer cell lines (ZR75-1, MCF7, T47D, SK-BR-3, MDA-MB-157, BT-20, MDA-MB-231V, MRK-nu-1); control mouse IgG1
[2] = target: human CAPRIN-1 expressed on the surface of human cancer cells and in human cancer tissues (human) (UniProt Q14444); test: flow cytometry on human cancer cell lines Caki-1, Caki-2, A498, T24, SKOV3, QG56, PC3, Hela, HT1080, T98G, U87MG, MNK28, Lovo, Capan-2, MIAPaCa-2, Panc-1, BxPC-3; control mouse IgG1
[3] = target: T1, polypeptide consisting of the amino acid sequence of SEQ ID NO: 66 (human); test: trypsin or chymotrypsin digestion of antibody-CAPRIN-1 complex, protein G Sepharose, MS/MS of recovered peptides
T1 peptide: QQPQAASPSVPE
Description: The cancer cell surface-reactive mouse-chicken chimeric anti-human CAPRIN-1 monoclonal antibody #12 obtained in the paragraph (4) was used to identify a CAPRIN-1 epitope region recognized thereby. 100 μg of recombinant CAPRIN-1 proteins was dissolved in a protein inhibitor-free dissolving buffer and reacted with the mouse-chicken chimeric anti-human CAPRIN-1 monoclonal antibody #12. To this solution, a digestive enzyme trypsin or chymotrypsin was added, followed by digestion reaction at a suitable temperature. After the reaction, a protein G Sepharose carrier was added thereto, then reacted, and precipitated by centrifugation operation. After removal of the supernatant, the carrier was washed with a dissolving buffer and PBS and dissolved in 0.1% formic acid, and the supernatant was recovered. The recovered supernatant sample was applied to a reverse-phase column (HLB Extraction Cartridge (Waters-OASIS)) to obtain an antibody-free sample solution. The obtained sample was subjected to reverse-phase liquid chromatography (Chromatography Nanosytem (KYA Technologies Corp.)) to recover a solution containing only peptides. The solution was introduced to a tandem-type mass spectrometer Quadrupole-TOF Mass Spectrometer (Waters-MicroMass) and analyzed by MS/MS to detect the peptides contained in the sample. […]

B1: mouse-chicken chimeric anti-human CAPRIN-1 monoclonal antibody #12 (antibody, mouse IgG1, V domains shown)
VH: AVTLDESGGGLQMSRGGLSLVCKASGFDFSSYQMNWIRQAPGKGLEFVAAINKFGNSTGHGAAVKGRVTISRDNGQSTVRLQLNNLRAEDTAIYFCTKHAYGYCGSGTWCAAGEIDAWGHGTEVIVSS
VL: QAASTQPSSVSANPGETVEITCSGGGSYSYGWFQQKSPGSAPVTVIYYNNKRPSDIPSRFSGSKSGSTGTLTITGVQADDEAVYYCGSGDSTDTAVFGAGTTLTVLG
notes: Variable regions of chicken antibody #11 with the constant regions of mouse IgG1 (H chain and L chain constant regions); produced in CHO-K1; also called mouse-chicken anti-human CAPRIN-1 monoclonal antibody (#12)
[1]
  rate of increase in mean fluorescence intensity (MFI) over control: > 35%
[2]
  rate of increase in mean fluorescence intensity (MFI) over control: > 35%
[3]
  binding result: binds

From patent US20150185222A1 (TORAY INDUSTRIES, published 2015)
